According to the nanobody polyreactivity screen of Harvey et al. (2022):

Assay: yeast display, Sf9 membrane polyspecificity reagent, FACS + sequencing; frameworks hold sequencing errors
How it was run: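 Genes from sorted yeast were amplified by colony PCR, read by MiSeq 2 × 250 sequencing and filtered on CDR length. These cells carried a synthetic nanobody library in Saccharomyces cerevisiae BJ5465 and were sorted by FACS into low and high (top ~1%) gates on anti-HA and streptavidin fluorescence. Polyreactivity is labelled according to the gate of origin.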

| Sequence | polyreactivity (PSR sort gate) |
| --- | --- |
| QVQLVESGGGLVQAGGSLRLSCAASGLIFRPYAMGWSRQAPGKERELVAAITSGGSTDYADSVKGRFTISRDNAKNTVYLQMNSLKPEDTAVYYCNADIYPHDGYPWQGDYDYWGQGTQVTVSS | low polyreactivity |
| QVQLVESGGGLVQAGGSLRLSCAASGLIFRPYAMGWYRQAPGKERELVAAITSGGSTDYADSVKGRFTISRDNAKNTVYLQMNSLKPQDTAVYYCNADTIPDGEDRYVYWGQGTQVTVSS | low polyreactivity |
| QVQLVESGGGLVQAGGSLRLSCAASGLIFRPYTMGWYRPAPGKERELVATISGSGASTNYADSVKGRFTISRDNAKNTVYLQMNSLKPEDTAVYYCKGRSYSRMYYWGQGTQVTVSS | high polyreactivity |
| QVQLVESGGGLVQAGGSLRLSCAASGLIFRRYVLGWYRQAPGKEWELVAAISATGSRTYYADSVKGRFTISRDNAKNTVYLQRNSLKPEDNAVYYCAAYRGPRIYRYDYWGQVTQVTVSS | high polyreactivity |
| QVQLVESGGGLVQAGGSLRLSCAASGLIFRTYAMGWYRQAPGKERELVAAISSSGGSTYYADSVKGRFTISRDNAKNTVYLQMNSLKPEDTAVYYCNVGSRRRRYLDRYEYWGQGTQVTVSS | high polyreactivity |
| QVQLVESGGGLVQAGGSLRLSCAASGLIFRTYTMGWNRQAPGKERELVAVISTSGGTTYYADSVKGRFTISRDNAKNTVYLQMNSLKPEDTAVYYCAKRYYWKYAEYDYWGQGSQVTVSS | high polyreactivity |
| QVQLVESGGGLVQAGGSLRLSCAASGLIFRWYAMGWYRQAPGKEREMVAAISRRGGTTNYADSVKGRFTISRDNAKNTVYLQMTSLKPEDTAVYYCAADYQSVGGAEYDYWGQGTQVTVSS | high polyreactivity |
| QVQLVESGGGLVQAGGSLRLSCAASGLIFRWYAMGWYRQAPGKEWELVAAISRRGGTTNYADSVKGRFTISRDNAKKTVYLQMNSLKPEDTAVYYCAADYQSVGGAEYDYWGQGTQVTVSS | high polyreactivity |
| QVQLVESGGGLVQAGGSLRLSCAASGLIFRWYDMGWYRQAPGKDRELVAAITRGGGTNYADSVKGRFTLSRDNAKNTVYLQMNSLKPEDTAVYYCAARLIKYGRAWTFGGYDYWGQGTQVSVSS | high polyreactivity |
| QVQLVESGGGLVQAGGSLRLSCAASGLIFRYYAMGWYRQAPGKERELVAAIDGSDGITYYADSVKGRFTISRDNAKNTVYLQMNSLKPEDTEVYYCDAAFYYWGQGTQVTVSS | low polyreactivity |
| QVQLVESGGGLVQAGGSLRLSCAASGLIFRYYAMGWYRQAPGKERELVATIRGGGSTYYADSVKGRFTISRDNAKNTVYLQMNSLKPEDTAVYYCAADPYSYGARGSRGDYWGQGTQVTVSS | low polyreactivity |
| QVQLVESGGGLVQAGGSLRLSCAASGLIFRYYAMGWYRQAPGKESELVAAITSGGGTYYADSVKGRFTISRDNAKNTVYLQMNSLKPEDTAFYYCAVGSYGHPKHRRNLDYWGQGTQVTVSS | low polyreactivity |
| QVQLVESGGGLVQAGGSLRLSCAASGLIFSDYAMGWYRQAPGKERELVAAISGIGTRTSYADSVKGRFTISRDNAKNTVYLQMNSLKPEDTAVYYCAARYYGFPSTLKYDYWGQGTQVTVSS | high polyreactivity |
| QVQLVESGGGLVQAGGSLRLSCAASGLIFSEYAMGRSRQAPWKERELVAAIRSDGGSTYYADSVKGRFTISRDNAKNSVYLQMNSLKPEDTAVYYCNAPYRRSAKFRRYGYDYWGQGTQVTVSS | high polyreactivity |
| QVQLVESGGGLVQAGGSLRLSCAASGLIFSGYAMGWYRQAPGKERELVAAINSGTSTTYADSVKGRFTISRDNAKNTVYLQMNSLKPEDTAVYYCNTPHNQDKPYPGYDYWGQGTQVTVSS | low polyreactivity |
| QVQLVESGGGLVQAGGSLRLSCAASGLIFSGYAMGWYRQAPGKERELVAAISRGGGRTSYADSVKGRFTISRDNAKNTVYLQMNSLKPEDTAVYYCAKDPRYLRYDHWGQGTQVTVSS | high polyreactivity |
| QVQLVESGGGLVQAGGSLRLSCAASGLIFSHYTMGWYRQAPGKERELVAAITSSGGSTYYADSVKGRFTISRDNAKNTVYLQMNSLKPEDTAVYYCNVDYYEPSWYDDDYWGQGTQVTVSS | low polyreactivity |
| QVQLVESGGGLVQAGGSLRLSCAASGLIFSKNVMGWYRQAPGKERELVAAISQRGGSTYYADSVKGRFTISRDNAKNTVYLQMNSLKPEDTAVYYCAARSRRRDDYWGQGTQVTVSS | high polyreactivity |
| QVQLVESGGGLVQAGGSLRLSCAASGLIFSNNAMGWYRQAPGKERELVAAITSSGSRTYYADSVKGRFTISRDNAKNTVYLEMNRLKPEDTAVYYCAAYEVPYQRRYGYWGQGTQVTVSS | high polyreactivity |
| QVQLVESGGGLVQAGGSLRLSCAASGLIFSQYAMGWYRQAPGKEREFVARISSSGGSTYYADSVKGRFTISRDNAKNTVYLQMNSLKPEDTAVYYCAAVGGRNIRVWFRTKYDYWGQGTQVTVSS | low polyreactivity |
| QVQLVESGGGLVQAGGSLRLSCAASGLIFSRYAMGWYRQAPGKERELVAAISSSGGTTYYADSVKGRFTISRDNAKNTVYLQMNSLKPEDTAVYYCAAGVAWRFYSWGQGTQVTVSS | high polyreactivity |
| QVQLVESGGGLVQAGGSLRLSCAASGLIFSSNAMGWARQAPGKEREWVAAITSGGSTNYADSVKGRFTISRDNAHNTVYLQMNSLKPEDTAVYYCNAVSPHYFGGSYDYWGQGTQVTVSS | low polyreactivity |

| Sequence | polyreactivity (PSR sort gate) |
| --- | --- |
| QVQLVESGGGLVQAGGSLRLSCAASGLIFSSNAMGWYRQAPGKERELVATISWSGGSTYYADSVKGRFTISRDNAKNTVYLQMNSLKPEDTAVYYCCWSALNGYDYWGQGTQVTVSS | high polyreactivity |
| QVQLVESGGGLVQAGGSLRLSCAASGLIFSSYAMGWYSQAPGKERELVAAITSGGNTNYADSVKGRFTISRDNAKNTVYLHMNSLKPEDTAVYYCSAVWWTYVAAPGYDYWGQGTQVTVSS | low polyreactivity |
| QVQLVESGGGLVQAGGSLRLSCAASGLIFSSYPKGWYRQAPGKEWVLVAAITRTGGDTYYADSVKGRFTISRDNAQNSFYLQMNSLKPEDTAVYYCSSSGPQYYSRNFDYWGQGTQVTVSS | low polyreactivity |
| QVQLVESGGGLVQAGGSLRLSCAASGLIFSTYDMGWYRQAPGKDRELVAAISTGGSTYCADSVKGRFTMSRDNAKYTVYLQMNSLKPEDTAVYYCAAGYTYHSWPLYYWDYNYWGQGTQVTVSS | low polyreactivity |
| QVQLVESGGGLVQAGGSLRLSCAASGLIFSVYAMGWYRQAPGKERELVARISINGGSTYYADSVKGRFTISRDNAKNTVYLQMNSLKPEDTAVYYCNAVRITHYVRYYYWGQGTQVTVSS | high polyreactivity |
| QVQLVESGGGLVQAGGSLRLSCAASGLIFSYNAMGWYRQAPGKERELVAAISANGGRTYYADSVKGRFTISRDNAKNTVSLQMNSLKPEDTAVYYCAAQGSRKLFYTDSGYWGQGTQVSVSS | high polyreactivity |
| QVQLVESGGGLVQAGGSLRLSCAASGLIFTGYAMGWYRQAPGKERELVAAITSGGGTNYADSVKGRFTISRDNAKNTVYLQMNSLKPEDTAVYYCAVDFGHYYLYSITSYLWYWDGYDYWGQGTQVTVSS | low polyreactivity |
| QVQLVESGGGLVQAGGSLRLSCAASGLIFTKAMGWYRQAPGKEREFVAAINSSGGSTYADSVKGRFTISRDNAKNTVYLQMNSLKPEDTAVYYCAARVNYLYEYWGQGTQVTVSS | low polyreactivity |
| QVQLVESGGGLVQAGGSLRLSCAASGLIFTPYAMGWYRQAPGKERELVAAINYGGSRTYYADSVKGRFTISRDNAKNTVYLQMNSLKPEDTAVYYCNVVKRSFRYDYWGEGTQVTVSS | high polyreactivity |
| QVQLVESGGGLVQAGGSLRLSCAASGLIFTSYAMGWYRQAPGKERELVAAISYSGGTTIYADSVKGRFTISRDYAKNTVYLQMNSVKPEDTAVYYCAADSLSTTHDTLGYDRDDYWGQGSQVTVSS | low polyreactivity |
| QVQLVESGGGLVQAGGSLRLSCAASGLIFTYYAMGWYRQAPGKERELVAAINWSGGSTYYADSVKGRFTISRDNAKNTVYLQMNSLKPEDTAVYYCAAAYANYRFYYWGQGTQVTVSS | high polyreactivity |
| QVQLVESGGGLVQAGGSLRLSCAASGLIFVGYAMGWYRQAPGTERELVAAITSGGSTNYADSVKGRFTISRDNAKNTVYLQMNSLKPEDTAVYYCAASDAIPLRYDYWGQGTQVTVSS | low polyreactivity |
| QVQLVESGGGLVQAGGSLRLSCAASGLIFVHYAMGWYRQAPGKERELVAAISAGGGSTYYADSVKGRFTISRDNAKNTVYLQMNSLKPEDTAVYYCNARVVNYFRPRTGAREYDYWGQGTQVTVSS | high polyreactivity |
| QVQLVESGGGLVQAGGSLRLSCAASGLIFVINAMGWYRQAPGKERELVATISSGVSTNYADSVKGRFTISRDNAKNTVYLQMNSLKPEDTAVYYCNAPEITYYYAPWETKIYDYWGQGTQVTVSS | low polyreactivity |
| QVQLVESGGGLVQAGGSLRLSCAASGLIFVSYAMGWYRQAPGKERELVASITDSDSSTYYADSVKGRFTISRDNAKNTVYLQMNSLKPEDTAVYYCATGGRTEIWYPTLDYWGQGTQVTVSS | low polyreactivity |
| QVQLVESGGGLVQAGGSLRLSCAASGLIFVTNAMGWYRQAPGKERELVAAITRSGGSTYYADSVKGRFTISRDNAKITVYLQMNSLKPEDTAVYYCATGFHYAYGYCGQGTQVTVSS | low polyreactivity |
| QVQLVESGGGLVQAGGSLRLSCAASGLIFVVYVMGWYRQAPGKERQLVAAMYGSGDSTYYADSVKGRFTISRDNAKNSVSLKMNSLKPEDTAVYSCAAKAFISDGYWYGYWGQGTQVTVSS | high polyreactivity |
| QVQLVESGGGLVQAGGSLRLSCAASGLIFWGYTMGWYRPAPGKERELVASITTSGSTYYADSVKGRFTISRDNAKNTVYLQMNSLKPEDTAVYYCAVDNYYTPWYPYLGYDSWGQGTQVTVSS | low polyreactivity |
| QVQLVESGGGLVQAGGSLRLSCAASGLIFWRYDMGWYRQAPGKERELVAVITSGGNTYYADAVKGRFRISRDNAKNTVYLQMNSLKPEDTAVYYCNADTWRDDYDYWGQGTQVTVAS | low polyreactivity |
| QVQLVESGGGLVQAGGSLRLSCAASGLIFWYYTMGWYRQAPGKERELVAAITIGGSTYYADSVKGRFTISRDNAKNTVYLQMNSLKPEDTAVYYCNTRRGRSQGGRYEYDYWGQGTQVTVSS | low polyreactivity |
| QVQLVESGGGLVQAGGSLRLSCAASGLIFYAYAMGWYRPAPGKERELVAAITSGSGTNYADSVKGRFTISRDNAKNTVYLQMNSLKPEDTAVYYCNAETYGLVPYYIYHYDFDYWGQVTQVTVSS | high polyreactivity |
